According to article PMC4437517:

What was measured:
Assay type in all cases: biochemical, Arabidopsis thaliana
[1] = substrate: N[C@@H](Cc1ccc(OP(=O)(O)O)cc1)C(=O)O; experiment: Malachite Green phosphate release, non-linear fit; settings: pH 5.0, no metal, 37 °C, substrate inhibition above 3.0 mM
[2] = substrate: Nc1ncnc2c1ncn2[C@@H]1O[C@H](COP(=O)(O)OP(=O)(O)OP(=O)(O)O)[C@@H](O)[C@H]1O; experiment: Malachite Green phosphate release, non-linear fit; settings: pH 5.0, no metal, 37 °C
[3] = substrate: O=[N+]([O-])c1ccc(OP(=O)(O)O)cc1; experiment: phosphatase assay, non-linear fit; settings: pH 5.0, no metal, 37 °C

B1: At1g05000 (Arabidopsis thaliana; M1S) (protein)
chain: SKLVEKTTTTEQDNGEDFCRTIIEVSEVNRNVFQAPGGEADPFRVVSGEELHLIPPLNFSMVDNGIFRSGFPDSANFSFLQTLGLRSIIYLCPEPYPESNLQFLKSNGIRLFQFGIEGNKEPFVNIPDHKIRMALKVLLDEKNHPVLIHCKRGKHRTGCLVGCLRKLQKWCLTSIFDEYQRFAAAKARVSDQRFMEIFDVSSFSHIPMSFSCSIR
Km [1]: 880 ± 100 µM
Vmax [1]: 0.19 µmol/min/mg
kcat [1]: 0.077 ± 0.004 s⁻¹
kcat/Km [1]: 87.5 M⁻¹ s⁻¹
Km [2]: 480 ± 50 µM
Vmax [2]: 1.52 µmol/min/mg
kcat [2]: 0.62 ± 0.02 s⁻¹
kcat/Km [2]: 1290 M⁻¹ s⁻¹
Km [3]: 670 ± 140 µM
Vmax [3]: 0.64 µmol/min/mg
kcat [3]: 0.26 ± 0.02 s⁻¹
kcat/Km [3]: 392 M⁻¹ s⁻¹
